Data published in patent US20230391860A1 (CANON MEDICAL SYSTEMS, published 2023).

Legend:
Assay in all cases: ELISA on immobilised peptide, antibody 1 ug/mL
[1] = target: T1, mCRP (31-60) (human)
T1 peptide: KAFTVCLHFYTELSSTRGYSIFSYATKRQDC

[2] = target: T2, mCRP (181-206) (human)
T2 peptide: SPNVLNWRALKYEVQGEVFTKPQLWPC

[3] = target: T3, mCRP (151-180) (human)
T3 peptide: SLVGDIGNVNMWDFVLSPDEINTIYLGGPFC

[4] = target: T4, mCRP (121-150) (human)
T4 peptide: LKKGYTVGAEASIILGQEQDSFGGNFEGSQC

[5] = target: T5, mCRP (61-90) (human)
T5 peptide: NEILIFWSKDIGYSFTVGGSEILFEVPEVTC

[6] = target: T6, mCRP (29) (human)
T6 peptide: FPKESDTSYVC
Source text: (§1) The following materials were used as materials for epitope analysis. [0156] (a) Plate: Immunoplate for ELISA (96 well) manufactured by Nunc [0157] […] (c) Solid-phase buffer: 0.1 M carbonate buffer pH 9.5 (IBL) [0159] (d) Antiserum dilution buffer: 1% BSA, 0.05% Tween-20 (Kanto Chemical Co., Inc.) in PBS [0160] (e) Labeled antibody dilution buffer: 1% BSA, 0.05% Tween-20 in PBS [0161] (f) Washing buffer: 0.05% Tween-20 in 0.1 M PB [0162] (g) Substrate buffer: K₂HPO₄-citrate buffer (pH 5.1) (IBL) [0163] (h) Reaction stop solution: 1 mol/L-H₂SO₄ (Wako Pure Chemical Industries, Ltd.)
(§2) Epitope analysis was performed by the following procedure. [0166] (a) Peptides were immobilized on a plate by standing at 50 ng/well (50 μL/well) for 16 hours at 4° C. […] (b) Solid phase peptides were washed twice with Dulbecco's PBS (D-PBS) (200 μL/well). [0168] (c) Blocking was performed by adding 200 μL of D-PBS containing 0.1% BSA and 0.05% NaN₃ to each well and leaving it at 4° C. overnight. [0169] (d) Each well was washed twice with the washing buffer. [0170] (e) The antibody was diluted to 1 μg/mL with the dilution buffer and the diluted solution was added to each well (50 μL/well) and left at 37° C. for 30 minutes. [0171] (f) Each well was washed four or more times with the washing buffer. [0172] (g) Anti-mouse IgG (γ-specific)-HRP, a labeled antibody, was added to each well (50 μL/well) and left at 37° C. for 30 minutes. [0173] (h) Each well was washed four or more times with the washing buffer. [0174] (i) A chromogenic reaction was started by adding a substrate solution (400 μg/mL) to each well (100 μL/well), and the reaction was allowed to proceed for 15 minutes at room temperature in the dark. [0175] (j) After 15 minutes, the reaction was stopped by addition of 1 mol/L sulfuric acid (100 μL/well), and absorbance (490 nm) was measured.

[7] = target: T7, mCRP (49) (human)
T7 peptide: KAFTVCLHFYC
Source text: as §1, §2

[8] = target: T8, mCRP (59) (human)
T8 peptide: TELSSTRGYSC
Source text: as §1, §2

[9] = target: T9, mCRP (169) (human)
T9 peptide: SLVGDIGNVNC
Source text: as §1, §2

[10] = target: T10, mCRP (109) (human)
T10 peptide: VAPVHICTSWC
Source text: as §1, §2

[11] = target: T11, mCRP (179) (human)
T11 peptide: MWDFVLSPDEC
Source text: as §1, §2

[12] = target: T12, mCRP (129) (human)
T12 peptide: VDGKPRVRKSC
Source text: as §1, §2

[13] = target: T13, mCRP (139) (human)
T13 peptide: LKKGYTVGAEC
Source text: as §1, §2

[14] = target: T14, mCRP (89) (human)
T14 peptide: IGYSFTVGGSC
Source text: as §1, §2

[15] = target: T15, mCRP (69) (human)
T15 peptide: IFSYATKRQDC
Source text: as §1, §2

[16] = target: T16, mCRP (99) (human)
T16 peptide: EILFEVPEVTC
Source text: as §1, §2

[17] = target: T17, mCRP (159) (human)
T17 peptide: SFGGNFEGSQC
Source text: as §1, §2

[18] = target: T18, mCRP (19) (human)
T18 peptide: QTDMSRKAFVC
Source text: as §1, §2

[19] = target: T19, mCRP (209) (human)
T19 peptide: KYEVQGEVFTKPQLWPC
Source text: as §1, §2

[20] = target: T20, mCRP (79) (human)
T20 peptide: NEILIFWSKDC
Source text: as §1, §2

[21] = target: T21, mCRP (149) (human)
T21 peptide: ASIILGQEQDC
Source text: as §1, §2

[22] = target: T22, mCRP (199) (human)
T22 peptide: SPNVLNWRALC
Source text: as §1, §2

[23] = target: T23, mCRP (189) (human)
T23 peptide: INTIYLGGPFC
Source text: as §1, §2

[24] = target: T24, mCRP (39) (human)
T24 peptide: SLKAPLTKPLC
Source text: as §1, §2

[25] = target: T25, mCRP (119) (human)
T25 peptide: ESASGIVEFWC
Source text: as §1, §2

- absorbance (490 nm) [1]: 0.03
- absorbance (490 nm) [2]: 0.006
- absorbance (490 nm) [3]: 0.108
- absorbance (490 nm) [4]: 0.017
- absorbance (490 nm) [5]: 1.98
- absorbance (490 nm) [6]: -0.001
- absorbance (490 nm) [7]: 0
- absorbance (490 nm) [8]: 0.001
- absorbance (490 nm) [9]: 0.001
- absorbance (490 nm) [10]: -0.001
- absorbance (490 nm) [11]: 0.003
- absorbance (490 nm) [12]: 0.002
- absorbance (490 nm) [13]: 0.002
- absorbance (490 nm) [14]: 0
- absorbance (490 nm) [15]: 0.002
- absorbance (490 nm) [16]: 1.58
- absorbance (490 nm) [17]: 0.002
- absorbance (490 nm) [18]: 0.004
- absorbance (490 nm) [19]: 0
- absorbance (490 nm) [20]: 0
- absorbance (490 nm) [21]: 0.001
- absorbance (490 nm) [22]: 0.006
- absorbance (490 nm) [23]: 0.007
- absorbance (490 nm) [24]: 0.001
- absorbance (490 nm) [25]: 0.005
B1: human denatured CRP-specific antibody produced from hybridoma mCRP-3C (antibody, mouse IgG2b, V domains shown)
VH: QVQLQQSGAELVRPGASVKLSCKALDYTFTDYEMHWVKQTPVHGLEWIGAIHPGRGGTAYNQKFKGKATLTADKSSSTAYMELSSLTSEDSGVYYCTSYHGGYWGQGTTLTVSS
VL: DVVMTQTPLSLPVSLGDQASISCRSSQSLVHSNENTYLLWYLQKPGQSPKLLIYKVSNRFSGVPDRFSGSGSGTDFTLKISRVEAEDLGVYFCSQTTHVPWTFGGGTKLEIKR
notes: Mouse IgG2b, kappa; also called 3C antibody
